Legend:
[1] = molecular target: 2(1CT)-GFP, GFP-tagged tandem dimer linking a full-length PANX1 subunit to a C-terminally truncated PANX1 subunit (human) (UniProt Q96RD7); assay: single-molecule photobleaching (TIRF microscopy), subunit counting; GFP-tagged concatemers in the plasma membrane of HEK293T cells 5-7 h after transfection; photobleaching steps fitted by binomial distributions assuming ~65% of GFP is fluorescent
[2] = molecular target: 3(2CT)-GFP, GFP-tagged trimeric concatemer of two full-length PANX1 subunits and a C-terminally truncated PANX1 subunit (human) (UniProt Q96RD7); assay: cross-linking; HEK293T cells surface-biotinylated (Sulfo-NHS-LC-Biotin, 4 °C, 30 min), then cross-linked with 1.8 mM disuccinimidyl suberate at 4 °C for 1 h; streptavidin precipitation and western blot; not quantitative according to the paper
[3] = molecular target: 3(2CT)-GFP, GFP-tagged trimeric concatemer of two full-length PANX1 subunits and a C-terminally truncated PANX1 subunit (human) (UniProt Q96RD7); assay: single-molecule photobleaching (TIRF microscopy), subunit counting; GFP-tagged concatemers in the plasma membrane of HEK293T cells 5-7 h after transfection; photobleaching steps fitted by binomial distributions assuming ~65% of GFP is fluorescent
[4] = molecular target: caspase 3-cleaved PANX1 (C-terminally cleaved human PANX1) (human); assay: SEC; purified PANX1 in amphipol A8-35 on an SRT-C 300 column (Sepax); oligomer size judged from the elution volume
[5] = molecular target: the molecule itself; assay: as above

“2(1CT)-GFP, GFP-tagged tandem dimer linking a full-length PANX1 subunit to a C-terminally truncated PANX1 subunit (from UniProt Q96RD7 1-426)” showed a stoichiometry N [1] of 3.

With “3(2CT)-GFP, GFP-tagged trimeric concatemer of two full-length PANX1 subunits and a C-terminally truncated PANX1 subunit (from UniProt Q96RD7 1-426; Q96RD7 1-426)” the stoichiometry N [2] was 2 and the stoichiometry N [3] was 2.

In the case of “caspase 3-cleaved PANX1 (C-terminally cleaved human PANX1) (domain or fragment)”, the stoichiometry N [4] is reported as 6.

B1: full-length human PANX1 (Pannexin 1) with a C-terminal enterokinase cleavage site and hexahistidine tag (natural protein, UniProt Q96RD7-1 1-426, looked up)
chain: MAIAQLATEYVFSDFLLKEPTEPKFKGLRLELAVDKMVTCIAVGLPLLLISLAFAQEISIGTQISCFSPSSFSWRQAAFVDSYCWAAVQQKNSLQSESGNLPLWLHKFFPYILLLFAILLYLPPLFWRFAAAPHICSDLKFIMEELDKVYNRAIKAAKSARDLDMRDGACSVPGVTENLGQSLWEVSESHFKYPIVEQYLKTKKNSNNLIIKYISCRLLTLIIILLACIYLGYYFSLSSLSDEFVCSIKSGILRNDSTVPDQFQCKLIAVGIFQLLSVINLVVYVLLAPVVVYTLFVPFRQKTDVLKVYEILPTFDVLHFKSEGYNDLSLYNLFLEENISEVKSYKCLKVLENIKSSGQGIDPMLLLTNLGMIKMDVVDGKTPMSAEMREEQGNQTAELQGMNIDSETKANNGEKNARQRLLDSSC
notes: Pannexin 1 (PANX1), human, NM_015368, isoform 1, 426 a.a., full length; No removal of the tag by enterokinase is described; The purified protein was probed with anti-pentaHis in a purity western; also called full-length PANX1; source: Sf9 (baculovirus), purified from membranes (TALON cobalt resin, amphipol A8-35 exchange, SEC)
B1 was tested, and the “stoichiometry N” value [5] was 6.

Source: publication PMC5290276, “A quantized mechanism for activation of pannexin channels” (Nature Communications, 2017)
